Results as given in article PMC5818494 (Scientific Reports, 2018).

B1: MBP-JMJD7 fusion protein (with a truncated linker) (enzyme, mouse)
chain: MAEAALEAVRRALQEFPAAARDLNVPRVVPYLDEPPSPLCFYRDWVCPNRPCIIRNALQHWPALQKWSLSYLRATVGSTEVSVAVTPDGYADAVRGDRFVMPAERRLPISHVLDVLEGRAQHPGVLYVQKQCSNLPTELPQLLSDIESHVPWASESLGKMPDAVNFWLGDASAVTSLHKDHYENLYCVVSGEKHFLLHPPSDRPFIPYNLYTPATYQLTEEGTFRVVDEEAMEKVPWIPLDPLAPDLTQYPSYSQAQALHCTVRAGEMLYLPALWFHHVQQSHGCIAVNFWYDMEYDLKYSYFQLMDTLTRATGLD
notes: JMJD7, mouse; Crystallised as the fusion; MBP (PDB 1HSJ) was a search model for molecular replacement
B2: JMJD7 (mouse), JMJD7 protein alone generated from GST-JMJD7 fusion protein (enzyme)
chain: MAEAALEAVRRALQEFPAAARDLNVPRVVPYLDEPPSPLCFYRDWVCPNRPCIIRNALQHWPALQKWSLSYLRATVGSTEVSVAVTPDGYADAVRGDRFVMPAERRLPISHVLDVLEGRAQHPGVLYVQKQCSNLPTELPQLLSDIESHVPWASESLGKMPDAVNFWLGDASAVTSLHKDHYENLYCVVSGEKHFLLHPPSDRPFIPYNLYTPATYQLTEEGTFRVVDEEAMEKVPWIPLDPLAPDLTQYPSYSQAQALHCTVRAGEMLYLPALWFHHVQQSHGCIAVNFWYDMEYDLKYSYFQLMDTLTRATGLD
notes: JMJD7, mouse; The GST-derived, tag-free form is stated for the crystals; also called mJMJD7; GST-free JMJD7

Columns and labels:
[1] = target: the molecule itself; test: crystal structure; MBP-JMJD7 (20 mg/ml), vapor diffusion, 100 mM Citrate Sodium, 20% PEG 3350, 4 °C; in the absence of α-KG; two molecules in one asymmetric unit
[2] = target: the molecule itself; test: crystal structure; mJMJD7 (from GST-mJMJD7, tag removed, 10 mg/ml), vapor diffusion, 0.1 M MES monohydrate pH6.0, 10% PEG4000, 4 °C; in the presence of α-KG; two molecules in one asymmetric unit

Protein | stoichiometry N [1] | stoichiometry N [2]
B1 | 2 | 
B2 |  | 2
